# T1: human RXFP1 receptor (human, UniProt Q9HBX9 1-757)
# T1 sequence (looked up): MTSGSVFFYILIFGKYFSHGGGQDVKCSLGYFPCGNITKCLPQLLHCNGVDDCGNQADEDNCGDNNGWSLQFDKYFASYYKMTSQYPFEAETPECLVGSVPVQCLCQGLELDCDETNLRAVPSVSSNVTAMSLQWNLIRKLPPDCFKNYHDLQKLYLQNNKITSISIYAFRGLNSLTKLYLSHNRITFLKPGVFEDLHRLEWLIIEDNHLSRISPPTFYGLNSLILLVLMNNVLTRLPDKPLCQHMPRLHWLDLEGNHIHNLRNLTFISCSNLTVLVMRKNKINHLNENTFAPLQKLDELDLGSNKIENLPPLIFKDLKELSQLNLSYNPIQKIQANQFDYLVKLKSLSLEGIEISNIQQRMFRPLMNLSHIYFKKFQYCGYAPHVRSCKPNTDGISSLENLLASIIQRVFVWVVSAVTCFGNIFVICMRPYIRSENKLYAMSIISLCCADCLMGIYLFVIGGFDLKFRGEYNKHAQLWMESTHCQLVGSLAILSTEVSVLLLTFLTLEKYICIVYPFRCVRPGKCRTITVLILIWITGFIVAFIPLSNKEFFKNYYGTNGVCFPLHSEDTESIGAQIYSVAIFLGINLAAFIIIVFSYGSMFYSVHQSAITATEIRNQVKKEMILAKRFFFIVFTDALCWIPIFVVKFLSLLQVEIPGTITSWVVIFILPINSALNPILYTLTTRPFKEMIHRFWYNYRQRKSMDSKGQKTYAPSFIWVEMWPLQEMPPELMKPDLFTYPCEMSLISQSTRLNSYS
# B1: 0051 (other)
# chain: EVQLLESGGGLVQPGGSLRLSCAASGFTFLTSCMGWFRQAPGKEREGVSSIYTVGGSTFYTNSVKGRFTISRDNSKNTLYLQMNSLRAEDTAVYYCAAGSPARCRLRDPTTFDYWGQGTLVTVSSGGGGQGGGGQGGGGQGGGGQGGGGQSWMEEVIKLCGRELVRAQIAICGMSTWSGGGSGGSGGGQLYSALANKCCHVGCTKRSLARFC
# notes: Single-chain fusion: anti-HSA VHH, linker, relaxin-2 B chain, linker, relaxin-2 A chain; also called fusion protein 0051; molecule 0051
# Molecular target: T1, human RXFP1 receptor
# Experiment: cell-based or functional assay
binder,measurement,value
B1,"EC50 (nM), cAMP production in THP1 cells, 1% HSA",28.4 nM
same,"EC50 (nM), cAMP production in THP1 cells, without HSA",3.83 nM

# — patent US20250312444A1 (BEIJING TUO JIE BIOPHARMACEUTICAL, published 2025)
